The source of these data is patent US20220411491A1 (Hoffmann-La Roche, published 2022).

Test [1] addresses T1, human GPRC5D (human, UniProt Q9NZD1 1-345). The test can be described thus: cell-based or functional assay.
The target in test [2] is T1, human GPRC5D. The test can be described thus: cell-based or functional assay. This is another data set of the same source.
For test [3], the target named is T2, B-cell maturation antigen (BCMA) (UniProt Q02223 1-184, limits assumed).
T2 sequence (looked up): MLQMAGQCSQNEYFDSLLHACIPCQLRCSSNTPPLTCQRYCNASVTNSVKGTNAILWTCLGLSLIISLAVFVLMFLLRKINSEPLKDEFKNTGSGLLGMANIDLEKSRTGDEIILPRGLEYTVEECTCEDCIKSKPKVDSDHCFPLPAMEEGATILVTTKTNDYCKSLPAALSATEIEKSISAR
The test can be described thus: cell-based or functional assay.

For test [4], the target named is T1, human GPRC5D. In words: cell-based or functional assay. This is another data set of the same source.
Test [5] deals with T1, human GPRC5D. In words: flow cytometry on NCI-H929 cells expressing human GPRC5D. The procedure:
To measure the binding to GPRC5D, we performed a flow cytometry-based binding assay on reported multiple myeloma cell lines (Lombardi et al., Molecular characterization of human multiple myeloma cell lines by integrative genomics: insights into the biology of the disease; Genes Chromosomes Cancer. 2007 March; 46(3):226-38.). The cell line NCI-H929 (ATCC® CRL-9068) was cultured in RPMI 1640 with Glutamax medium (Gibco) supplemented with 10% FBS, 1× Penicillin/Streptomycin (Gibco), lx Sodium Pyruvate (Gibco) and 50 μM beta-mercaptoethanol (Gibco).
0.1 Mio cells per well of a 96-round-bottom-well plate were incubated with 150 nM to 15 fM (serial dilutions of 1:10) of the indicated GPRC5D IgG constructs 5E11g2 and 5F11g2 or no construct for 30 min at 4° C. […] After two final washing steps, flow cytometric acquisition was performed on a custom-designed BD Biosciences Fortessa and analyzed using BD Diva. EC50 values were calculated, using GraphPad Prism software. […] None of the antibodies reaches saturation in the assessed concentration range.
(In flow cytometry, cells or beads pass a laser one at a time.)

T1 sequence (Q9NZD1 whole entry): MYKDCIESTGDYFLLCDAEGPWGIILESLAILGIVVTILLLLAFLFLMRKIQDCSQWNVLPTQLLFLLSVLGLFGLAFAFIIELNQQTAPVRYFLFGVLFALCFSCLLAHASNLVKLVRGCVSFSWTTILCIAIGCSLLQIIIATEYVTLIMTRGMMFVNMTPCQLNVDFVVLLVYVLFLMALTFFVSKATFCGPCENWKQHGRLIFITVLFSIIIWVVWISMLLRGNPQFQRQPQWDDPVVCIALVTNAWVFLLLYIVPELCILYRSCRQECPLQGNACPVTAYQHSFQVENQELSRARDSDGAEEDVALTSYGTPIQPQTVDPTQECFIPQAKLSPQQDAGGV

B1: 5F11-TCB (bispecific antibody, human IgG1, kappa, L234A L235A)
light 1: DIVMTQAPLSVSVTPGESASISCRSSKSLLHSNGITYVYWYFQKPGKSPQVLIYRMSNLASGVPDRFSGSGSETDFTLKISRVEAEDVGIYHCGQLLENPYTFGAGTELELKRTVAAPSVFIFPPSDRKLKSGTASVVCLLNNFYPREAKVQWKVDNALQSGNSQESVTEQDSKDSTYSLSSTLTLSKADYEKHKVYACEVTHQGLSSPVTKSFNRGEC
light 2: EVQLLESGGGLVQPGGSLRLSCAASGFTFSTYAMNWVRQAPGKGLEWVSRIRSKYNNYATYYADSVKGRFTISRDDSKNTLYLQMNSLRAEDTAVYYCVRHGNFGNSYVSWFAYWGQGTLVTVSSASVAAPSVFIFPPSDEQLKSGTASVVCLLNNFYPREAKVQWKVDNALQSGNSQESVTEQDSKDSTYSLSSTLTLSKADYEKHKVYACEVTHQGLSSPVTKSFNRGEC
heavy 1: EVQLVESGGGLVQPGRSLKLSCAASGFSFSNYGMAWVRQAATKGLEWVASISTGGGNTYYRDSVKGRFIVSRDNAKNTQYLQMDSLRSEDTATYYCTRHDRGGLYWGQGVMVTVSSASTKGPSVFPLAPSSKSTSGGTAALGCLVEDYFPEPVTVSWNSGALTSGVHTFPAVLQSSGLYSLSSVVTVPSSSLGTQTYICNVNHKPSNTKVDEKVEPKSCDKTHTCPPCPAPEAAGGPSVFLFPPKPKDTLMISRTPEVTCVVVDVSHEDPEVKFNWYVDGVEVHNAKTKPREEQYNSTYRVVSVLTVLHQDWLNGKEYKCKVSNKALGAPIEKTISKAKGQPREPQVCTLPPSRDELTKNQVSLSCAVKGFYPSDIAVEWESNGQPENNYKTTPPVLDSDGSFFLVSKLTVDKSRWQQGNVFSCSVMHEALHNHYTQKSLSLSPGK
heavy 2: not shown
B1: in the test with human GPRC5D [1], the “EC50 of T cell mediated killing, AMO-1 cells (LDH release)” value was found to be 0.003 nM; the “EC50 of T cell mediated killing, L363 cells (LDH release)” value came out at 0.001 nM; the “EC50 of T cell mediated killing, NCI-H929 cells (LDH release)” value was determined as 0.001 nM; the “EC50 of T cell mediated killing, RPMI-8226 cells (LDH release)” value came to 0.002 nM. In the test with human GPRC5D [2], the “EC50 of in vitro killing, AMO-1” value is 0.006 nM; the “EC50 of in vitro killing, EJM” value was 0.003 nM; the “EC50 of in vitro killing, L363” value was 0.003 nM; the “EC50 of in vitro killing, MOLP-2” value amounted to 0.001 nM. Further, in the test with human GPRC5D [2], the “EC50 of in vitro killing, NCI-H929” value worked out at 0.004 nM; the “EC50 of in vitro killing, OPM-2” value is 0.001 nM; the “EC50 of in vitro killing, RPMI” value amounted to 0.006 nM.

B2: BCMA-TCB (bispecific antibody, human IgG1, kappa, L234A L235A)
heavy 1: EVQLLESGGGLVQPGGSLRLSCAASGFTFSSYAMNWVRQAPGKGLEWVSAITASGGSTYYADSVKGRFTISRDNSKNTLYLQMNSLRAEDTAVYYCARYWPMSLWGQGTLVTVSSASTKGPSVFPLAPSSKSTSGGTAALGCLVEDYFPEPVTVSWNSGALTSGVHTFPAVLQSSGLYSLSSVVTVPSSSLGTQTYICNVNHKPSNTKVDEKVEPKSCDKTHTCPPCPAPEAAGGPSVFLFPPKPKDTLMISRTPEVTCVVVDVSHEDPEVKFNWYVDGVEVHNAKTKPREEQYNSTYRVVSVLTVLHQDWLNGKEYKCKVSNKALGAPIEKTISKAKGQPREPQVCTLPPSRDELTKNQVSLSCAVKGFYPSDIAVEWESNGQPENNYKTTPPVLDSDGSFFLVSKLTVDKSRWQQGNVFSCSVMHEALHNHYTQKSLSLSPGK
light 1: EIVLTQSPGTLSLSPGERATLSCRASQSVSAYYLAWYQQKPGQAPRLLMYDASIRATGIPDRFSGSGSGTDFTLTISRLEPEDFAVYYCQQYERWPLTFGQGTKVEIKRTVAAPSVFIFPPSDRKLKSGTASVVCLLNNFYPREAKVQWKVDNALQSGNSQESVTEQDSKDSTYSLSSTLTLSKADYEKHKVYACEVTHQGLSSPVTKSFNRGEC
heavy 2: not shown
light 2: EVQLLESGGGLVQPGGSLRLSCAASGFTFSTYAMNWVRQAPGKGLEWVSRIRSKYNNYATYYADSVKGRFTISRDDSKNTLYLQMNSLRAEDTAVYYCVRHGNFGNSYVSWFAYWGQGTLVTVSSASVAAPSVFIFPPSDEQLKSGTASVVCLLNNFYPREAKVQWKVDNALQSGNSQESVTEQDSKDSTYSLSSTLTLSKADYEKHKVYACEVTHQGLSSPVTKSFNRGEC
For B2, in test [3], the “EC50 of in vitro killing, AMO-1” value stood at 0.518 nM; the “EC50 of in vitro killing, EJM” value was 0.132 nM; the “EC50 of in vitro killing, L363” value amounted to 0.127 nM; the “EC50 of in vitro killing, MOLP-2” value is 0.032 nM. In addition, in test [3], the “EC50 of in vitro killing, NCI-H929” value stood at 0.311 nM; the “EC50 of in vitro killing, OPM-2” value amounted to 0.033 nM; the “EC50 of in vitro killing, RPMI” value came out at 0.011 nM.

B3: 5E11g2 (antibody, human IgG1, kappa, V domains shown)
VH: ELQLEQSGGGLVQPGGSLTLSCAASGFTFSKYAMAWVRQAPTKGLEWVASISTGGVNTYYRDSVKARFTISRDNAKNTQYLQMDSLRSEDTATYYCATHTGDYFDYWGQGVMVTVSS
VL: DIVLTQSPALAVSPGQRATISCRASQSVSISGINLMNWYQQKPGQQPKLLIYHASILASGIPTRFSGSGSGTDFTLTIDPVQADDIATYYCQQTRESPLTFGSGTNLEIKR
notes: Glyco-engineered human IgG1 (GlycoMab technology); afucosylation degree 59.1%; also called BSH-5E11-G7 hu IgG1 G2
As a reminder, the EC50 is the concentration giving half of the maximal effect. Higher therefore signals a need for much substance. On to B3, for which, in the test with human GPRC5D [4], the “EC50 of GPRC5D-IgG induced tumor cell lysis (ADCC, LDH release), AMO-1” value was 0.405 nM and the “EC50 of GPRC5D-IgG induced tumor cell lysis (ADCC, LDH release), NCI-H929” value turned out to be 0.084 nM. In addition, in the test with human GPRC5D [5], the EC50 was about 69.5 nM.

B4: 5F11g2 (antibody, human IgG1, kappa, V domains shown)
VH: EVQLVESGGGLVQPGRSLKLSCAASGFSFSNYGMAWVRQAATKGLEWVASISTGGGNTYYRDSVKGRFIVSRDNAKNTQYLQMDSLRSEDTATYYCTRHDRGGLYWGQGVMVTVSS
VL: DIVMTQAPLSVSVTPGESASISCRSSKSLLHSNGITYVYWYFQKPGKSPQVLIYRMSNLASGVPDRFSGSGSETDFTLKISRVEAEDVGIYHCGQLLENPYTFGAGTELELKR
Consider B4, for which, in the test with human GPRC5D [4], the “EC50 of GPRC5D-IgG induced tumor cell lysis (ADCC, LDH release), AMO-1” value is 0.096 nM and the “EC50 of GPRC5D-IgG induced tumor cell lysis (ADCC, LDH release), NCI-H929” value amounted to 0.048 nM.
